# Measurements as given in patent publication US20220249621A1.
# Biological target: EphB4 on CD4+ T cells isolated from the spleens of tumor-bearing mice (mouse) (UniProt P54761)
# Test: cell-based or functional assay
# Chain of UniProt P54761 (P54761 16-987): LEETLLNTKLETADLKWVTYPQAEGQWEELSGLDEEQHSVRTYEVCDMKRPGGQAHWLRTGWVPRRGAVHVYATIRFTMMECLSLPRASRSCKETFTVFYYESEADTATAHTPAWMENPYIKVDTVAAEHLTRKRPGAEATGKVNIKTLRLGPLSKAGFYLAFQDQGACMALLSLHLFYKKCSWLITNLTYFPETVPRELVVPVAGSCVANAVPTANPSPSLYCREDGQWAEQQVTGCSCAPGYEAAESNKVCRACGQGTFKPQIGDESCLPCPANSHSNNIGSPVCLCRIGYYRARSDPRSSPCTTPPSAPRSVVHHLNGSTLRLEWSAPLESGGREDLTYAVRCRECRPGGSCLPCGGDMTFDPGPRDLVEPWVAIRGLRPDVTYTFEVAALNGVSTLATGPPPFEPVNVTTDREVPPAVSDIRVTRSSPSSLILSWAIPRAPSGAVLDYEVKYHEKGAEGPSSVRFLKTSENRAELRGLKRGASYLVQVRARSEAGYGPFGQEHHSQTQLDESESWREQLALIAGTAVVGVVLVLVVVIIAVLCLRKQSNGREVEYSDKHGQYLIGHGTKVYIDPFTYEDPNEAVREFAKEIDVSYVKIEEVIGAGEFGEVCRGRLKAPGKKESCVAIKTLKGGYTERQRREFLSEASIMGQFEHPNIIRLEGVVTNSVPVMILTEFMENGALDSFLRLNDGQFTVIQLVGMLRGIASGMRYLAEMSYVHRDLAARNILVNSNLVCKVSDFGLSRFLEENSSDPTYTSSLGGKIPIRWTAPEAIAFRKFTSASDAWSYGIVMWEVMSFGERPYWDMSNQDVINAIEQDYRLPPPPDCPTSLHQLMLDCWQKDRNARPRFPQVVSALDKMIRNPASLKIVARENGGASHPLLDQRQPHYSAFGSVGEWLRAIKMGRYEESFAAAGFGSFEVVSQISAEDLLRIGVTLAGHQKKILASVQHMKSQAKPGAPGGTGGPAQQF
substance,measurement,value
recombinant ephrin-B2-Fc (Fc fusion),fold decrease in Ki67 expressing Tregs (flow cytometry),1.7 fold
